B1: DOM7h-4 (other)
VL: DIQMTQSPSSLSASVGDRVTITCRASQEIYSWLAWYQQRPGKAPKLLIYNASHLQSGVPSRFSGSGSGTDFTLTISSLQPEDFATYYCQQVIGDPVTFGQGTKVEIKR
B2: DOM7h-6 (other)
VL: DIQMTQSPSSLSASVGDRVTITCRASQSISSYLNWYQQKPGKAPTLLIYRLSVLQSGVPSRFSGSGSGTDFTLTISSLQPEDFATYYCQQTYNVPPTFGQGTKVEIKR
B3: DOM7h-3 (other)
VL: DIQMTQSPSSLSASVGDRVTITCRASQWIDTGLAWYQQKPGKAPRLLIYNVSRLQSGVPSRFSGSGSGTDFTLTISSLQPEDFATYYCQQYWGSPTTFGQGTKVEIKR
B4: DOM7r-17 (other)
VL: DIQMTQSPSSLSASVGDRVTITCRASQKIYNNLRWYQQKPGKAPKLLIYNTSILQSGVPSRFSGSGSGTDFTLTISSLQPEDFATYYCQQRWRAPYTFGQGTKVEIKR
B5: DOM7r-18 (other)
VL: DIQMTQSPSSLSASVGDRVTITCRASQWIYKSLGWYQQKPGKAPKLLIYQSSLLQSGVPSRFSGSGSGTDFTLTISSLQPEDFATYYCQQYHQMPRTFGQGTKVEIKR
B6: DOM7r-19 (other)
VL: DIQMTQSPSSLSASVGDRVTITCRASQWIYRHLRWYQQKPGKAPKLLIYDASRLQSGVPTRFSGSGSGTDFTLTISSLQPEDFATYYCQQTHNPPKTFGQGTKVEIKR
B7: DOM7r-15 (other)
VL: DIQMTQSPSSLSASVGDRVTITCRASQSIGRRLKWYQQKPGAAPRLLIYRTSWLQSGVPSRFSGSGSGTDFTLTISSLQPEDFATYYCQQTSQWPHTFGQGTKVEIKR
B8: DOM7r-31 (other)
VH: EVQLLESGGGLVQPGGSLRLSCTASGFTFRHYRMGWVRQAPGKGLEWVSWIRPDGTFTYYADSVKGRFTISRDNSKNTLYLQMNSLRAEDTAVYYCAKSYMGDRFDYWGQGTLVTVSS
B9: DOM7r-16 (other)
VL: B4 VL with N31K, T51S, W92Y, R93L, A94S
B10: DOM7r-3 (other)
VL: DIQMTQSPSSLSASVGDRVTITCRASQYIGRYLRWYQQKPGKAPKLLIYDSSVLQSGVPSRFSGSGSGTDFTLTISSLQPEDFATYYCQQRYMQPFTFGQGTKVEIKR
B11: DOM7r-27 (other)
VH: EVQLLESGGGLVQPGGSLRLSCAASGFTFWPYTMSWVRQAPGKGLEWVSTISPFGSTTYYADSVKGRFTISRDNSKNTLYLQMNSLRAEDTAVYYCAKSDVLKTGLDGFDYWGQGTLVTVSS
B12: DOM7h-2 (other)
VL: B2 VL with S28K, S30A, S31T, T45K, L51S, V53S, G57A, D70V, N93A
B13: DOM7h-23 (other)
VH: EVQLLESGGGLVQPGGSLRLSCAASGFTFYDYNMSWVRQAPGKGLEWVSTITHTGGVTYYADSVKGRFTISRDNSKNTLYLQMNSLRAEDTAVYYCAKQNPSYQFDYWGQGTLVTVSS
B14: DOM7h-26 (other)
VH: EVQLLESGGGLVQPGGSLRLSCTASGFTFDEYNMSWVRQAPGKGLEWVSTILPHGDRTYYADSVKGRFTISRDNSKNTLYLQMNSLRAEDTAVYYCAKQDPLYRFDYWGQGTLVTVSS
B15: DOM7m-16 (other)
VL: DIQMTQSPSSLSASVGDRVTITCRASQSIIKHLKWYQQKPGKAPKLLIYGASRLQSGVPSRFSGSGSGTDFTLTISSLQPEDFATYYCQQGARWPQTFGQGTKVEIKR
notes: also called MSA16
B16: DOM7m-26 (other)
VL: B15 VL with I30Y, K31Y, G50K, R53T, G91V, A92R, R93K, W94V, Q96R
notes: also called MSA 26
B17: DOM7h-22 (other)
VH: EVQLLESGGGLVQPGGSLRLSCAASGFTFSKYWMSWVRQAPGKGLEWVSSIDFMGPHTYYADSVKGRFTISRDNSKNTLYLQMNSLRAEDTAVYYCAKGRTSMLPMKGKFDYWGQGTLVTVSS
B18: DOM7r-8 (other)
VL: B6 VL with Y30H, H32Q, R34K, D50Y, R53I, T60S, H92F, N93S, P94K, K96S
B19: DOM7r-13 (other)
VL: B6 VL with W28H, Y30H, H32E, D50Q, T60S, T91K, H92Y, N93L, K96Y
B20: DOM7r-14 (other)
VL: B4 VL with K28H, Y30H, N31R, N32E, N50Q, T51A, I53R, W92Y, A94V
B21: DOM7h-21 (other)
VH: EVQLLESGGGLVQPGGSLRLSCAASGFTFDLYDMSWVRQAPGKGLEWVSSIVNSGVRTYYADSVKGRFTISRDNSKNTLYLQMNSLRAEDTAVYYCAKLNQSYHWDFDYWGQGTLVTVSS
B22: DOM7h-24 (other)
VH: B14 VH with T23A, D30H, E31R, N33S, H54G, R57V, D100T, L102D, R104M
B23: DOM7h-27 (other)
VH: EVQLLESGGGLVQPGGSLRLSCAASGFTFSDYRMSWVRQAPGKGLEWVSTIISNGKFTYYADSVKGRFTISRDNSKNTLYLQMNSLRAEDTAVYYCAKQDWMYMFDYWGQGTLVTVSS
B24: DOM7h-25 (other)
VH: EVQLLESGGGLVQPGGSLRLSCAASGFTFWKYNMAWVRQAPGKGLEWVSTILGEGNNTYYADSVKGRFTISRDNSKNTLYLQMNSLRAEDTAVYYCAKTMDYKFDYWGQGTLVTVSS
B25: DOM7r-7 (other)
VL: B10 VL with M93S, Q94S, F96Y
B26: DOM7r-4 (other)
VL: B10 VL with Y28W, D50N, S51G, V53Q, M93L, F96Y
B27: DOM7r-5 (other)
VL: B10 VL with G30S, Y32Q, K45R, D50G, S51A, V58I, M93I, Q94T, F96Y, I106V

Residue numbers refer to the chain shown, from its start.

The text below walks through data of patent publication US20090111745A1 (DOMANTIS, published 2009).

In one experiment the target is T1, human serum albumin (human, UniProt P02768 25-609).
T1 construct: also called HSA; HAS
The experiment in a line: phage display selection on albumin (figure legend).
With B1, the binding result is “binds”.

Regarding B2, the binding result is reported as “binds”.

Consider B3, for which the binding result is “binds”.

Another experiment has as its target T2, rat serum albumin (rat, UniProt P02770 25-608).
T2 construct: also called RSA
The experiment in a line: phage display selection on albumin (figure legend).
B4: the binding result is “binds”.

Take B5: the binding result is “binds”.

For the molecule B6, the binding result is given as “binds”.

Regarding B7, the binding result is “binds”.

The target in another experiment is T2, rat serum albumin. The experiment in a line: affinity (KD) for rat serum albumin; method not stated in the table (BIACORE SPR in Example 1). (In general: Surface plasmon resonance follows binding to a sensor surface in real time, without labels.)
For orientation: Kd means the concentration at which binding is half-saturated. Regarding B8, the affinity, expressed as Kd, was 5000 nM.

In turn, B9 displayed a dissociation constant Kd of 1000 nM.

In the case of B10, binding was put at a Kd of 12 nM.

Turning to B11, the dissociation constant (Kd) was 250 nM.

The next experiment addresses T1, human serum albumin. The experiment in a line: BIACORE SPR, albumin on a CM5 chip, dAb in solution.
Protocol: (§1) dAbs that bound serum albumin on a BIACORE chip (Biacore AB) were then further analysed to obtain information on affinity. The analysis was performed using a CM5 chip (carboxymethylated dextran matrix) that was coated with serum albumin. Flow cell 1 was an uncoated, blocked negative control, flow cell 2 was coated with HSA, flow cell 3 was coated with RSA and flow cell 4 was coated with MSA. The serum albumins were immobilised in acetate buffer pH 5.5 using the BIACORE coating wizard which was programmed to aim for 500 resonance units (RUs) of coated material. Each dAb of interest was expressed in the periplasm of E. coli on a 200 mL-500 mL scale and purified from the supernatant using batch absorption to protein A-streamline affinity resin (Amersham, UK) for the VH_{^S} and to protein L-agarose affinity resin (Affitech, Norway) for the Vκs followed by elution with glycine at pH 2.2 and buffer exchange to PBS. A range of concentrations of dAb were prepared (in the range 5 nM to 5 μM) by dilution into BIACORE HBS-EP buffer and flowed across the BIACORE chip.
The molecule B12 yielded an equilibrium dissociation constant (Kd) of 10 to 100 nM.

B13 showed a dissociation constant (Kd) of 500 to 5000 nM.

B14 displayed a Kd of 100 to 500 nM.

The target of another experiment is T1, human serum albumin. Kind of experiment: table of affinities (KD); BIACORE on serum albumin-coated chip according to Example 1.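 Further: surface plasmon resonance with dAbs flowed over a chip carrying human, rat or mouse serum albumin, blocked uncoated flow cell as reference, KD from on- and off-rate curve fits.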
Protocol: as §1
With B15, the dissociation constant Kd is greater than 5000 nM.

B16 returned a Kd greater than 5000 nM.

B17 registered a Kd of 60 nM.

B18: the binding result was “no binding”.

With B9, the binding result is “no binding”.

As to B10, the binding result was “no binding”.

For B12, the dissociation constant (Kd) came out at 70 nM.

For B19, the binding result is listed as “no binding”.

On to B20, for which the binding result is on record as “no binding”.

On to B11, for which the binding result was “no binding”.

With B13, the Kd came out at 900 nM.

In turn, B14 returned a Kd of 300 nM.

The target of a further experiment is T3, mouse serum albumin (mouse, UniProt P07724 25-608).
T3 construct: also called MSA
The experiment is described as above.
Protocol: as §1
For the molecule B8, the Kd was 1000 nM.

On to B15, for which binding was put at a Kd of 50 nM.

Regarding B16, the Kd came to 60 nM.

Regarding B17, the binding result is on record as “no binding”.

Molecule B18 had an equilibrium dissociation constant (Kd) of 40 nM.

B9 yielded a dissociation constant (Kd) of 1000 nM.

B10: the Kd is greater than 5000 nM.

For B12, the Kd was greater than 5000 nM.

Consider B11, for which binding was characterised by a dissociation constant (Kd) of 250 nM.

Turning to B13, the binding result is recorded as “no binding”.

For the molecule B14, the binding result is given as “no binding”.

The target of a further experiment is T2, rat serum albumin. The experiment is described as above.
Protocol: as §1
With B17, the binding result is “no binding”.

As to B18, the dissociation constant (Kd) stood at 20 nM.

For B12, the equilibrium dissociation constant (Kd) was greater than 5000 nM.

In the case of B19, binding was put at a Kd of 80 nM.

B20 showed an equilibrium dissociation constant (Kd) of 50 nM.

Take B13: the binding result was “no binding”.

Turning to B14, the binding result is given as “no binding”.

A further experiment concerns the target T1, human serum albumin. Kind of experiment: BIACORE SPR screen, column 'Biacore binding'.
Description: (§2) If a significant proportion of the clones in one of the selections were positive in the phage ELISA, then DNA from this selection was cloned into an expression vector for production of soluble dAb, and individual colonies were picked. […] Clones were then sequenced and unique dAb sequences identified.
Consider B21, for which the binding result is “binds”.

Regarding B22, the binding result is “binds”.

On to B23, for which the binding result is given as “binds”.

For B24, the binding result was “binds”.

The next experiment addresses T3, mouse serum albumin. The experiment in a line: BIACORE SPR screen, column 'Biacore binding'.
Description: as §2
With B25, the binding result is “binds”.

As for B26, the binding result is reported as “binds”.

Another experiment deals with T2, rat serum albumin. Kind of experiment: BIACORE SPR screen, column 'Biacore binding'.
Description: as §2
As for B25, the binding result is listed as “binds”.

Take B26: the binding result is “binds”.

For B27, the binding result is reported as “binds”.

The target of a further experiment is T1, human serum albumin. Kind of experiment: table of affinities (KD); BIACORE on serum albumin-coated chip according to Example 1; '+' = detectable binding but weak (estimated KD > 5 µM).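 Further: surface plasmon resonance with dAbs flowed over a chip carrying human, rat or mouse serum albumin, blocked uncoated flow cell as reference, KD from on- and off-rate curve fits.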
Protocol: as §1
B8: the Kd was roughly 10000 nM.
